Reference: PMC7682656

Target: His6-tagged NBDY (human)
Experiment: SPR + ITC

Kd: 1000 nM
Substance: purified EDC4 WD40 domain (residues 72-528) (from UniProt Q6P2E9 72-528) (domain or fragment)
